{
  "source": "paper PMC3288308",
  "key": {"[1]": {"target": "Human plasma fibronectin (human)", "assay": "SPR"}, "[2]": {"target": "Treponema pallidum adhesin protein fragment rTp0483 (recombinant C-terminal portion of Tp0483) (Treponema pallidum)", "sequence (O83496 22-374)": "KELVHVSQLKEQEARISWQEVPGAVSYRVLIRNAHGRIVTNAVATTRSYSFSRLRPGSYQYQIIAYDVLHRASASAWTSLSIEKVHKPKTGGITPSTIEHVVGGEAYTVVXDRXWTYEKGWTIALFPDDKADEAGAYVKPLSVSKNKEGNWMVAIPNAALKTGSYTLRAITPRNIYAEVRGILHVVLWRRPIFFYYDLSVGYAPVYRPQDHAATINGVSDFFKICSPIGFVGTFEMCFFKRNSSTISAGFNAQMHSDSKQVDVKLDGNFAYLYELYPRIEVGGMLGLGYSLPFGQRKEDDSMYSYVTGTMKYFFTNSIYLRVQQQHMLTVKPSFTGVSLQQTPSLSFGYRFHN", "assay": "SPR"}, "[3]": {"target": "Treponema pallidum adhesin protein fragment rTp0483 (recombinant C-terminal portion of Tp0483) (Treponema pallidum)", "assay": "quartz crystal microbalance"}, "[4]": {"target": "Treponema pallidum adhesin protein fragment rTp0483 (recombinant C-terminal portion of Tp0483) (Treponema pallidum)", "assay": "SPR", "remark": "listed apart in the source"}, "[5]": {"target": "Treponema pallidum adhesin protein fragment rTp0483 (recombinant C-terminal portion of Tp0483) (Treponema pallidum)", "assay": "quartz crystal microbalance", "remark": "listed apart in the source"}, "[6]": {"target": "Treponema pallidum adhesin protein fragment rTp0483 (recombinant C-terminal portion of Tp0483) (Treponema pallidum)", "assay": "quartz crystal microbalance", "remark": "listed apart in the source"}, "[7]": {"target": "Treponema pallidum adhesin protein fragment rTp0483 (recombinant C-terminal portion of Tp0483) (Treponema pallidum)", "assay": "SPR", "remark": "listed apart in the source"}, "[8]": {"target": "Treponema pallidum adhesin protein fragment rTp0483 (recombinant C-terminal portion of Tp0483) (Treponema pallidum)", "assay": "SPR", "remark": "listed apart in the source"}, "[9]": {"target": "Treponema pallidum adhesin protein fragment rTp0483 (recombinant C-terminal portion of Tp0483) (Treponema pallidum)", "assay": "quartz crystal microbalance", "remark": "listed apart in the source"}},
  "note": "Like-named read-outs stand apart in the source and are kept apart here.",
  "data": [
    {"substance": "Peptide D2, residues 316-333 of the complete Tp0483 sequence", "values": [
      {"measurement": "% FN binding to rTp0483 with the peptide, of FN alone", "setting": "[1]", "result": 88, "unit": "%"}
    ]},
    {"substance": "Human plasma fibronectin (natural protein)", "values": [
      {"measurement": "KA1 (bivalent analyte model, reaction 1)", "setting": "[2]", "result": "1.53e+09", "unit": "M⁻¹"},
      {"measurement": "KA2 (bivalent analyte model, reaction 2)", "setting": "[2]", "result": "225 1/RU"},
      {"measurement": "surface mass density of FN bound (QCM)", "setting": "[3]", "result": 3.5, "unit": "pg/mm^2"},
      {"measurement": "KA2 (bivalent analyte model, reaction 2)", "setting": "[4]", "result": "0.0403 1/RU"},
      {"measurement": "KD1 (inverse of KA1, reaction 1 of the bivalent analyte model)", "setting": "[4]", "result": 0.97, "unit": "nM"},
      {"measurement": "surface mass density of FN bound (QCM)", "setting": "[5]", "result": 363, "unit": "pg/mm^2"},
      {"measurement": "surface mass density of FN bound (QCM)", "setting": "[6]", "result": 60, "unit": "pg/mm^2"},
      {"measurement": "KA1 (bivalent analyte model, reaction 1)", "setting": "[7]", "result": "1.03e+09", "unit": "M⁻¹"},
      {"measurement": "KA2 (bivalent analyte model, reaction 2)", "setting": "[7]", "result": "403 1/RU"},
      {"measurement": "surface mass density of FN bound (SPR) in the presence of anti-Tp0483#1", "setting": "[7]", "result": 373, "unit": "pg/mm^2"},
      {"measurement": "surface mass density of FN bound (SPR) in the presence of anti-Tp0483#2", "setting": "[7]", "result": 270, "unit": "pg/mm^2"},
      {"measurement": "surface mass density of FN bound (SPR), FN alone", "setting": "[7]", "result": 282, "unit": "pg/mm^2"},
      {"measurement": "surface mass density of FN bound (SPR), FN preincubated with 20 µg/mL anti-RGD", "setting": "[7]", "result": 91, "unit": "pg/mm^2"},
      {"measurement": "surface mass density of FN bound (SPR), FN preincubated with 50 µg/mL anti-RGD", "setting": "[7]", "result": 47, "unit": "pg/mm^2"},
      {"measurement": "surface mass density of FN bound (SPR), no antibody", "setting": "[7]", "result": 846, "unit": "pg/mm^2"},
      {"measurement": "KA2 (bivalent analyte model, reaction 2)", "setting": "[8]", "result": "0.0225 1/RU"},
      {"measurement": "KD1 (inverse of KA1, reaction 1 of the bivalent analyte model)", "setting": "[8]", "result": 0.65, "unit": "nM"},
      {"measurement": "surface mass density of FN bound (QCM)", "setting": "[9]", "result": 1380, "unit": "pg/mm^2"}
    ]},
    {"substance": "Type A gelatin", "values": [
      {"measurement": "surface mass density of gelatin bound (SPR) on FN adsorbed on the SAM", "setting": "[1]", "result": 940, "unit": "pg/mm^2"},
      {"measurement": "surface mass density of gelatin bound (SPR) on rTp0483+FN", "setting": "[1]", "result": 211, "unit": "pg/mm^2"}
    ]}
  ]
}
